The record followed here is paper PMC10439028, “SGLT5 is the renal transporter for 1,5-anhydroglucitol, a major player in two rare forms of neutropenia” (Cellular and Molecular Life Sciences: CMLS, 2023).

Where a chain is given by its changes, count along the chain named. Names and notes keep the numbering of the source.

Holding throughout (format): cell-based, human
Substrate in data set [1]: OC[C@H]1OC[C@H](O)[C@@H](O)[C@@H]1O
Briefly: 1,5-AG uptake in HEK293T cells overexpressing SGLT5 variant Asn96Ile. The settings on record: other: variant Asn96Ile (rs148178887); pH 7.4; 37.0 °C. Here is the method:
(§1) For a typical transporter experiment we proceeded as follows. […] To minimize cell loss during the various washing steps in the radioactive uptake experiments, the wells where the cells were seeded were previously coated with poly- D-lysine, which improved their adhesion to the plastic surface of the wells. For this, each well of the 24-well plates was treated with 200 µl of a 0.01% poly-L-lysine solution for 10 min, washed 3 times with 1 ml of sterilized water and left to dry for 2 h. Only then could the 24-well plates be seeded with the appropriate cell lines and cultured overnight at 37 °C in 5% CO2.
(§2) On day two, the radioactive uptake assay could be performed. The cell culture media was removed by aspiration and cells were incubated for 20 min at 37 °C and 5% CO2 with a basal medium (10 mM HEPES, pH 7.4, 1 mM CaCl2, 1 mM MgCl2, 2 mM KCl) containing 140 mM choline chloride to deplete intracellular Na^2+ ions. […]
(§3) Once the uptake medium was added to the cells, the plates were incubated at 37 °C in 5% CO2 during the required time. […] In each experiment, the transport activities were calculated after subtracting a “blank” value, corresponding to the radioactivity in the appropriate control cells (HEK293T cells that were stably or transiently transfected with one of the parent plasmids pEF6/MycHisA, pEF6HisB, pUB82 or pUB83 with no inserted cDNA) that were analyzed in parallel. […]

Substrate in data set [2]: OC[C@H]1OC[C@H](O)[C@@H](O)[C@@H]1O
The data set can be described thus: 1,5-AG uptake in HEK293T cells overexpressing SGLT5 variant Ala522Val. The settings on record: other: variant Ala522Val (rs12604020); pH 7.4; 37.0 °C. Here is the method: as §1, §2, §3

Substrate in data set [3]: OC[C@H]1OC[C@H](O)[C@@H](O)[C@@H]1O
Briefly: 1,5-AG uptake in HEK293T cells overexpressing SGLT5 variant Arg401His. The following applies: other: variant Arg401His (rs754390288); pH 7.4; 37.0 °C. Here is the method:
as §1, §2, §3

B1: hSGLT5 Asn96Ile (Homo sapiens; N96I) (protein)
chain: MAANSTSDLHTPGTQLSVADIIVITVYFALNVAVGIWSSCRASRNTVNGYFLAGRDMTWWPIGASLFASSEGSGLFIGLAGSGAAGGLAVAGFEWIATYVLLALAWVFVPIYISSEIVTLPEYIQKRYGGQRIRMYLSVLSLLLSVFTKISLDLYAGALFVHICLGWNFYLSTILTLGITALYTIAGGLAAVIYTDALQTLIMVVGAVILTIKAFDQIGGYGQLEAAYAQAIPSRTIANTTCHLPRTDAMHMFRDPHTGDLPWTGMTFGLTIMATWYWCTDQVIVQRSLSARDLNHAKAGSILASYLKMLPMGLIIMPGMISRALFPDDVGCVVPSECLRACGAEVGCSNIAYPKLVMELMPIGLRGLMIAVMLAALMSSLTSIFNSSSTLFTMDIWRRLRPRSGERELLLVGRLVIVALIGVSVAWIPVLQDSNSGQLFIYMQSVTSSLAPPVTAVFVLGVFWRRANEQGAFWGLIAGLVVGATRLVLEFLNPAPPCGEPDTRPAVLGSIHYLHFAVALFALSGAVVVAGSLLTPPPQSVQIENLTWWTLAQDVPLGTKAGDGQTPQKHAFWARVCGFNAILLMCVNIFFYAYFA
notes: pUB83-hSGLT5-iso2 as well as the various SGLT5 mutants obtained were used to transduce HEK293T cells; expressed in transfected cells; host or cells: HEK293T, lentiviral transduction (pUB83)
For orientation: Km means the concentration of substrate that gives half-maximal velocity. As to B1, the Km in data set [1] was found to be 1565 ± 302 µM.

B2: hSGLT5 Ala522Val (Homo sapiens; A522V) (protein)
chain: B1 chain with I96N, A522V
notes: as for B1
With B2, the Km in data set [2] is given as 210 ± 12 µM.

B3: hSGLT5 Arg401His (Homo sapiens; R401H) (protein)
chain: B1 chain with I96N, R401H
notes: as for B1
For B3, the Michaelis constant (Km) in data set [3] stood at 331 ± 13 µM.
